Target: wildtype SARS-CoV-2 RBD Protein (SARS-CoV-2, UniProt P0DTC2 319-541)
Experiment: SPR

| Binder | koff [s⁻¹] |
| --- | --- |
| 18-4A (antibody, V domains shown) VH: QVQLQQSGPGLVKPSQTLSLTCAISGDSVSNNSAAWNWIRQSPSRGLEWLGRTYYRSKWYNDYAVSVSSRITINPDTSKNQFSLQLNSVTPEDTAVYYCAREGALLWFGEGAFDYWGQGTLVTVSS VL: EIVLTQSPGTLSLSPGERATLSCRASHIVSSSYLAWYQQKPGQAPRFLIYGASSRATGIPDRFSGSGSGTDFTLTISRLEPEDFAVYYCQQYAGSPFTFGPGTKVDIK | 0.000134 |
| 11-2G (antibody, V domains shown) VH: QVQLQQAGPGLVKPSQTLSLTCAISGDSVSNNSAIWNWIRQSPSRGLEWLGRTYYRSKWYNDYAVSVSSRITINPDTSKNQFSLQLNSVTPEDTAVYYCARVDILTGYSFDYWGQGTLVTVSS VL: EIVLTQSPGTLSLSPGERATLSCRASQSVSSSFLAWYQQKPGQAPRFLIYGESYRATGIPDRFSGSGSGTDFTLTISRLEPEDFAVYYCQQYGSSLTFGGGTKVEIK | 0.000568 |
